Experimental data taken from the DeepSol protein solubility set.

Assay: soluble on expression in E. coli; label from the status in PepcDB or PDB records

Sequence | soluble on expression in E. coli
MRKGINMTAELLVNVTPSETRVAYIDGGILQEIHIEREARRGIVGNIYKGRVSRVLPGMQAAFVDIGLDKAAFLHASDIMPHTECVAGEEQKQFTVRDISELVRQGQDLMVQVVKDPLGTKGARLTTDITLPSRYLVFMPGASHVGVSQRIESESERERLKKVVAEYCDEQGGFIIRTAAEGVGEAELASDAAYLKRVWTKVMERKKRPQTRYQLYGELALAQRVLRDFADAELDRIRVDSRLTYEALLEFTSEYIPEMTSKLEHYTGRQPIFDLFDVENEIQRALERKVELKSGGYLIIDQTEAMTTVDINTGAFVGHRNLDDTIFNTNIEATQAIARQLRLRNLGGIIIIDFIDMNNEDHRRRVLHSLEQALSKDRVKTSVNGFSALGLVEMTRKRTRESIEHVLCNECPTCHGRGTVKTVETVCYEIMREIVRVHHAYDSDRFLVYASPAVAEALKGEESHSLAEVEIFVGKQVKVQIEPLYNQEQFDVVMM | not soluble
MRKIRLVYRRFPNRVIMREDEVIEDFGDVIVAKSEFTGMLAPLRVNGVEVINNGYKMVYFAFIGRDFDVLKIYDPSGNFKGLYVDVLDYTRREGNTVEILDLFLDIFIFPEGEYYLLDEDELEMAFNYGIISREKLLKAYDTAERIIGQIKRGKFPPKIVWEYSL | not soluble
MRKLTLPKDFLWGGAVAAHQVEGGWNKDGKGPSICDVLTGGAHGVPREITQNVVAGKYYPNHEAVDFYGHYKEDIRLFAEMGFKCFRTSIAWTRIFPNGDESQPNEAGLKFYDDMFDELLKYNIEPVITLSHFEMPLHLVQHYGGWTNRKVVDFFVRFAEVVFERYKHKVKYWMTFNEINNQRNWRAPLFGYCCSGVVYTEHENPEETMYQVLHHQFVASALAVKAARRINPQMKVGCMLAMVALYPFSCKPEDVMFAQESMRERYVFTDVQLRGYYPSYVLNEWERRGFNIKMEDGDLEVLREGTCDYLGFSYYMTNAVKAEGGSGDAISGFEGSVPNPYVKASDWGWQIDPVGLRYSLCELYERYQKPLFIVENGFGAYDKVEEDGSINDDYRIDYLRAHIEEMKKAVTYDGVDLMGYTPWGCIDCVSFTTGQYSKRYGFIYVNKHDDGTGDMSRSRKKSFNWYKEVIASNGEKL | not soluble
MRKNKLSFKEKAGAEQEECLCFCEGEASREAMFQAPIELPEGFVVDPAEAVANVTWNADSLSCVSDRCLIQTGPEPDEVGVQFAVRLQGTVTLLVSVSPVRNQYGQGDGAVSVIHNAEIDQVVYYSDESDDCPDISDITIENLVVVPPFYGSPLSVTGTIVLVPEPEPVYAFTANPNDQSVSVIDTNTDTVVTTIALPYNPAGIEITPDKSAVFVLHPNNNVISVIDYDTLTVTATILLDQPPRLIRFIPNHEFAYVFTGTAVYVIGIDTLTVDRSIPVEGYDVAIDPNGLFAYVLNFGIVQKVDLTTGEVTGTIERELIVSTIETNWPERYAYVLEQEFFFNYLTVIDLNTFTISSTQELEYEGEYRMFTSGAEVYLYDGFTGNLYSVSPNGAGVIGNVPQSATDYAFTPNGDFLYATRFIEQSIIVYNTDDYSEETVISLGVSPGAITILEHHHHHH | soluble
MRKQLPVICVAAGIVLLAACTNDGGQQQTTVAPQPAVCNGPTVEISGAEPRYEPLNPTANQDYQRDGKSYKIVQDPSRFSQAGLAAIYDAEPGSNLTASGEMFDPMQLTAAHPTLPIPSYARITNLANGRMIVVRINDRGPYGTDRVISLSRAAADRLNTSNNTKVRIDPIIVAPDGSLSGPGMACTTVAKQTYALPPRPDLSGGMGSASSAPAQPQGDVLPVSNSTLKSDDTTGAPVSSSGFLGAPTTLAPGVLESNEPTPAPQPAPVSAPVAAPATAPATATPVSAPAAAAPVSAPVSAPAAAASGRFVVQVGAVSDQTRAQQYQQRLSQQFSVPGRVIQNGAVWRIQLGPFASKAEASALQQRLQTEAQLQSFIASAQ | not soluble
MRKRARIIYNPTSGKELFKRVLPDALIKLEKAGYETSAYATEKIGDATFEAERALESEYDLLIAAGGDGTLNEVVNGIAEQPNRPKLGVIPMGTVNDFGRALHLPSDIMGAIDVIIDGHTTKVDIGKMNNRYFINLAAGGKLTQVSYETPSKLKSIVGPFAYYIKGFEMLPQMKAVDVRIEYDDNIFQGEALLFLLGLTNSMAGFEKLVPDAKLDDGYFTLIIVEKANLAELGHIMTLASRGEHTKHPKVIYAKAKSINISSFTDMQLNVDGEYGGKLPANFLNLEQHIEIFTPKDVFNEELLENDTITDITPDKQ | not soluble
MRKRKPLDYYLSLKYPVLLVAEPEGGYTALHPDLEGCVSVGETPEEALANLEEARRLWLEAAYEHGDEIPLPSTEREYSGRVLVRMPKSLHRRLDEEAKAEGVSLNQYIVSLPAERSSLRALKRELTRTGRAAEAPDSWEWGTSSGGGIWTGVLA | soluble
MRKTKTEALKTKEHLMLAALETFYRKGIARTSLNEIAQAAGVTRGALYWHFKNKEDLFDALFQRICDDIENCIAQDAEDAEGGSWAVFRHTLLHFFERLQSNDIYYKFHNILFLKCEHTEQNAAVIAIARKHQAIWREKITAVLTEAVENQDLADDLDKETAVIFIKSTLDGLIWRWFSSCERFDLGKTAPRIIGIMMDNLENHPDLRRK | soluble
MRKTLNVVVNGERTEIVTYKGTVQGALHDNGITLAPKDKVTPSLESKISKNETITINKAVNVKVKTEDGEKEIVSAEDNVEDMLKSEGISFDDDDKILPDKKESLKDGMNVEVVKVDVKKVTEVHPIEFTTEVKKDESKPQTYTEVLNDGQDGEKKVTRELVYENGKEVSNNVIQELVVKEPVNKEVVKGTKETQTLSRGGESINFKKKLSVKSTAYNHPLGSAEAYTASGMHVLRDPNGYSTIAVDPSVIPLGTKLYVEGYGYAIAADTGGAIKGNRVDLFFNTEAEASNWGVRNLDVYILNLEHHHHHH | soluble
MRKYSQRHIPVMVREVIEFLKPEDEKIILDCTVGEGGHSRAILEHCPGCRIIGIDVDSEVLRIAEEKLKEFSDRVSLFKVSYREADFLLKTLGIEKVDGILMDLGVSTYQLKGENRGFTFEREEPLDMRMDLESEVTAQKVLNELPEEELARIIFEYGEEKRFARRIARKIVENRPLNTTLDLVKAVREALPSYEIRRRKRHFATKTFQAIRIYVNRELENLKEFLKKAEDLLNPGGRIVVISFHSLEDRIVKETFRNSKKLRILTEKPVRPSEEEIRENPRARSGRLRAAERIEEGGD | soluble
MRLCSVALLLFTVAYVKSAIDINVPSTLYIKEGDTGTIGLPVSANYRREVHNPKGTMDEQLYRVCNGKNKTTCGFWEDVKTKKKVKSGVTTYNKNKKALVIKKMLVSDFGNYMTGNKKKSRYVQQLVSLGK | not soluble
MRLEECNILFELLTEIQDEAGSMEKIVHKTLQRLSQLLAADRCSMFICRSRNGIPEVATRLLNVTPTSKFEDNLVNPDKETVFPLDIGIAGWVAHTKKFFNIPDVKKNNHFSDYLDKKTGYTTVNMMAIPITQGKEVLAVVMALNKLNASEFSKEDEEVFKKYLNFISLVLRLEHHHHHH | soluble
MRLFLLLLSLLLISITTAFALDKPDGSNSIEDQTALFFGKDDRTAVTNSRQWPWEAIGQVETASGNPCTATLISPRLVLTAGHCVLTPPGNIDQAVALRFISDKGHWKYQITDLKTRVDAKLGQKLKADGDGWIVPPAAAAYDFALIQLTNAAPIPIKPLPLWEGTANELTKALKLVNRKVTQAGYPLDNLNTLYKHEDCLVTGWAQQGVLAHQCDTLPGDSGSPLLLKNGNSWSLIAIQSSAPAAKERYLADNRALSVTAINNRLKKLVNKIADTTQ | not soluble
MRLYLLAFLALFGMNAMAADNWKAFPYDQSAYDYPGDKLKEAWPRLTRGFGDYPYPDADWVVNMATAHPDALEKTVKAGTGFTGKPEEAAQYAARLQDVWRLLFRGDYAKAKEQGLALGVGGQVPAMFAQVLYAMFLAPGQAEKQRLLEEVIDYTEQAGPLVKADIVAQFGSVYAKARLAEELSVPVVLKRGYTSEIPKELDALLARQPNQPFALALYGGYEAGVIRKVGKLVGKMTYGVSADKMEQYFARSFRQANDLPIGHYEYANALTYVYGDDEREKAIAQLKQAVAIKPINAMEALEVAHAKKLLAGFEQNTAQR | not soluble
MRPGWIAADWGTSRLRVWAMGAEGVLAEARSDEGMGQIAVGGFEAALLRLIGLWLSDGPAVQVVICGMAGARQGWQEVPYRRLPCAPVDPQALVPVPSEDPRIAVRIVPGLAQAKPADVMRGEETQIAGALALLGSFDGVICLPGTHSKWAQVSAGEVVSFRSFLTGELFALLSERSVLRHGLAAEGWDDEAFLAAVSDGMSHPQKLGAKLFGLRAEALLQDLPPATARARLSGLLIGLELVGARSYWLGQPVVLVGEEALAARYGAALAAQGVQARLLPAAACTLGGLAAAVGQLTLASSGAGRKA | not soluble
MRPPRPPRPPSPQRSAELRRRFAQEARSERPDLATLCLLVGAEADGTLDEAGLDAAQVELDRLAGELPFRPGTPRAWAVALRDLLGERYGFHGVAADYQRLESSLLHEVVRRRRGLPILLSVVWLEVARRAGAPVYGVALPGHFVVGFGGESAAASGPGSAPLGERVLVDPYDGGRLLSGTDAEALVAGATGAELRASMLEPAAPLDVVARVLNNIRAWAAARPEQSAVGLWAVELALLLPAHAARLRYERAVLLVQRGEFAAGAGELEAYAEVVEAVDEAVAEEVRGEARTARAMLN | not soluble
MRQCTPFDTLLVFYSTWPVLKNILTNKIMPAELESVRTRQIVALRTMINLNEPVVNSGVREPVWKVLVLDRTGQDIISPLLPVKQLRELGVTLHLLIGARREPLTDVPAVYFVSPNDENIDLMSEDLKKAMYDSFYCNFISPLARPRLESLASAAVHGGAVSQVQKVVDQYLNFISLEDDLFVLRRYSENSTFSYHAMNSPGTSDVAVNAMLDSIADGLFAVCATMGIVPIIRCPKGNAAEMVAKKLDQKLRDNLRDSRNNLFTMDGVRMGLLQTSRPLLVIGDRSADLATMLHHTWTYQALMHDVLELDQNRVTISTSSTGKKKDYDMATGGSDKLWNNHKGSAFPTVAEAVQENLDDYRSKEDDIKKIKQALGLSGESEAADEALTNVLADTTAKLGSTVMSLPDLLESKRLIDLHTNIATTLLDVIKERKLDVSLSSSKSCCNTHRLVDLFYQPVTQFLSNINHQEDVLRVLIIAFLCQETVNQNGYDQMMNLLRERGIEESALKHVQKLKSISQLGSRAANSAHTEEHQGAGTKTISMFGKLLSHSSKFVMEGVKNLVPKEHNLPLTKMIDSLNTPPSSTGISSAVGINQMIGGSSQGPDIDDIYCFFDPKLMHQPTKETILLARQQSAQDVILFVVGGGNYVEYQNLVDYGKRKNLMRVTYGCTELVNPAQFCDQVSCCSLSLPLTDLSGDSPYFFCSPLEF | not soluble
MRQGGIYQTKDANKGPVTVPPLRTKTPPPPPPPVRRHEIYEQHKRYTSAPNLQSAVIRIQDDKPRSIMKRNDLVRREQMLYPTVDTQVVKSVVKKPTVTETVQRFEETRRTEEVERRVQRREKKERRSRHHSSSRHHSGWEGHTGGYQEYRQGAITSSLPRRQIIREADRAMTEEEMNKVVREAYAAADEARKDSRHRSSSLSRGGHGGGGQETYYRQETTRRQQHNNYDDNFNRGIAHARYGSLSDSLRRGELQYVPNGEVRQSFYRDGSNGGQRMHKSYSTRDVFTGDGYDDRRSVSSFRRGSQQQVSPFVEFPPTLPRRGGGGDYRREEDAYFRPVSKSRSYADWDDAGRAGMGREVRRYDDDMSRLEAEFRDSLLMPMPAGNMNERDHRTEQLPGGYETFNKERHANSGRRSGRDGKPVDFNEATQEYNYKREQTLNDDRRRR | not soluble
MRRESYRERALVVRSYDFGEADRIIVLFTRGRGIVRGVAKGVRRAKSRFGSRLQPFVELDVQLYRGRNLESITAADTVAYFGAKIIDDVTRFSAASSILEGVEKLAVGDEPRLFDLTVTALKNMQSCAHPVAEVDTFLLQGMNIAGWAPSLFDCAQCGASGPHHAFHPSPGGAVCVHCRPLGAQEVDPETLHMMWLMAQGHRDAVAEIGTPERYQQAHALIRSHLSWHVERGLASLNVLDQV | not soluble
